# Data: patent EP3757216B1
# How the values were obtained:
# [1] = molecular target: gamma-globulin preparation (The Chemo-Sero-Therapeutic Research Institute), a human antibody (human); assay: ELISA on immobilised human gamma-globulin, anti-6His detection; antibody binding activity after acid treatment (pH 3.0, 72 h, 30 C) divided by that without treatment
# [2] = molecular target: gamma-globulin preparation (The Chemo-Sero-Therapeutic Research Institute), a human antibody (human); assay: ELISA on immobilised human gamma-globulin, anti-6His detection; antibody binding activity after acid treatment (pH 3.0, 24 h, 30 C) divided by that without treatment
Binder,RESIDUAL ACTIVITY [%] [1],RESIDUAL ACTIVITY [%] [2]
FcγRIIa-m11-Del2 (receptor) MGQAAAPPKAVLKLEPPWTNVLQEDSVTLTCQGARPSDSVLWFHNGNLIPTQTQLTYRFKATSNDSGEYTCQTGQTSLSDPVHLTVLSEWLVLQPPRLEFQEGETIMLRCHSWKDKPLVKVTFFQNGKSQKFSHLDPTFSIPQANHSHSGDYHCTGNIGYTSFSSKPVTITVQGGHHHHHH,81.3%,–
FcγRIIa-m11 (receptor) MGQAAAPPKAVLKLEPPWTNVLQEDSVTLTCQGARSPESDSVLWFHNGNLIPTQTQLTYRFKATSNDSGEYTCQTGQTSLSDPVHLTVLSEWLVLQPPRLEFQEGETIMLRCHSWKDKPLVKVTFFQNGKSQKFSHLDPTFSIPQANHSHSGDYHCTGNIGYTSFSSKPVTITVQGGHHHHHH,83.6%,95.3%
FcγRIIa-m10A (receptor) MGQAAAPPKAVLKLEPPWTNVLQEDSVTLTCQGARSPESDSVLWFHNGNLIPTQTQPTYRFKATSNDSGEYTCQTGQTSLSDPVHLTVLSEWLVLQPPRLEFQEGETIMLRCHSWKDKPLVKVTFFQNGKSQKFSHLDPTFSIPQANHSHSGDYHCTGNIGYTSFSSKPVTITVQGGHHHHHH,–,77.3%
FcγRIIa-m10B (receptor) MGQAAAPPKAVLKLEPPWTNVLQEDSVTLTCQGARSPESDSVQWFHNGNLIPTQTQLTYRFKATSNDSGEYTCQTGQTSLSDPVHLTVLSEWLVLQPPRLEFQEGETIMLRCHSWKDKPLVKVTFFQNGKSQKFSHLDPTFSIPQANHSHSGDYHCTGNIGYTSFSSKPVTITVQGGHHHHHH,–,46.9%
FcγRIIa-m10C (receptor) MGQAAAPPKAVLKLEPPWINVLQEDSVTLTCQGARSPESDSVLWFHNGNLIPTQTQLTYRFKATSNDSGEYTCQTGQTSLSDPVHLTVLSEWLVLQPPRLEFQEGETIMLRCHSWKDKPLVKVTFFQNGKSQKFSHLDPTFSIPQANHSHSGDYHCTGNIGYTSFSSKPVTITVQGGHHHHHH,–,72.9%
FcγRIIa-m11-Del1 (receptor) MGQAAAPPKAVLKLEPPWTNVLQEDSVTLTCQGARPESDSVLWFHNGNLIPTQTQLTYRFKATSNDSGEYTCQTGQTSLSDPVHLTVLSEWLVLQPPRLEFQEGETIMLRCHSWKDKPLVKVTFFQNGKSQKFSHLDPTFSIPQANHSHSGDYHCTGNIGYTSFSSKPVTITVQGGHHHHHH,89.8%,–

# Further lines, results first:
RESIDUAL ACTIVITY [%] [1],RESIDUAL ACTIVITY [%] [2],Binder
33.3%,–,FcγRIIa-m11-Del7 (receptor) MGQAAAPPKAVLKLEPPWTNVLQEDSVTLTCQDSVLWFHNGNLIPTQTQLTYRFKATSNDSGEYTCQTGQTSLSDPVHLTVLSEWLVLQPPRLEFQEGETIMLRCHSWKDKPLVKVTFFQNGKSQKFSHLDPTFSIPQANHSHSGDYHCTGNIGYTSFSSKPVTITVQGGHHHHHH
72.4%,–,FcγRIIa-m11-Del3 (receptor) MGQAAAPPKAVLKLEPPWTNVLQEDSVTLTCQGARSDSVLWFHNGNLIPTQTQLTYRFKATSNDSGEYTCQTGQTSLSDPVHLTVLSEWLVLQPPRLEFQEGETIMLRCHSWKDKPLVKVTFFQNGKSQKFSHLDPTFSIPQANHSHSGDYHCTGNIGYTSFSSKPVTITVQGGHHHHHH
76.7%,–,FcγRIIa-m11-Del4 (receptor) MGQAAAPPKAVLKLEPPWTNVLQEDSVTLTCQGASDSVLWFHNGNLIPTQTQLTYRFKATSNDSGEYTCQTGQTSLSDPVHLTVLSEWLVLQPPRLEFQEGETIMLRCHSWKDKPLVKVTFFQNGKSQKFSHLDPTFSIPQANHSHSGDYHCTGNIGYTSFSSKPVTITVQGGHHHHHH
86.5%,–,FcγRIIa-m11-Del5 (receptor) MGQAAAPPKAVLKLEPPWTNVLQEDSVTLTCQGADSVLWFHNGNLIPTQTQLTYRFKATSNDSGEYTCQTGQTSLSDPVHLTVLSEWLVLQPPRLEFQEGETIMLRCHSWKDKPLVKVTFFQNGKSQKFSHLDPTFSIPQANHSHSGDYHCTGNIGYTSFSSKPVTITVQGGHHHHHH
25.4%,–,FcγRIIa-m11-Del6 (receptor) MGQAAAPPKAVLKLEPPWTNVLQEDSVTLTCQGDSVLWFHNGNLIPTQTQLTYRFKATSNDSGEYTCQTGQTSLSDPVHLTVLSEWLVLQPPRLEFQEGETIMLRCHSWKDKPLVKVTFFQNGKSQKFSHLDPTFSIPQANHSHSGDYHCTGNIGYTSFSSKPVTITVQGGHHHHHH
